The record followed here is patent publication US6756357 (ISTITUTO DI RICHERCHE DI BIOLOGIA MOLECOLARE DI ANGELETTI S …, dated 2004).

The target in assay [1] is T1, CNTFRα-myc (soluble extracellular domain of the CNTFRα receptor) (UniProt P26992 23-342).
T1 construct: extracellular domain; Captured on plates or protein A-Sepharose through the anti-myc antibody 9E10; also called CNTF receptor α; soluble CNTFRα receptor
T1 sequence (looked up): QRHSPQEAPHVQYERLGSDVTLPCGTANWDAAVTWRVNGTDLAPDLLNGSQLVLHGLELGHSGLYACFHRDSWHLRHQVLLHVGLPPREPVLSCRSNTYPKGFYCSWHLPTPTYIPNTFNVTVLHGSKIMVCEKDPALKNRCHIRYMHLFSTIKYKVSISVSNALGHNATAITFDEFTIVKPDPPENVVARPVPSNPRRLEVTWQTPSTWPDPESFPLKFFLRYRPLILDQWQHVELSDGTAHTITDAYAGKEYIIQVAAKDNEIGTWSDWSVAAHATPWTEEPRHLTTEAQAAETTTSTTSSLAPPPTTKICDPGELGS
Put plainly: solid-phase competition with biotinylated CNTF or biotinylated MUT-DH for immobilised CNTFRα-myc, soluble gp130 present. On the procedure: The ability of CNTF variants to compete with biotinylated CNTF ([…]) for binding to the extracellular domain of the CNTFRα receptor was determined in a solid-phase binding assay, in the presence of soluble gp130, as described in preceding publications (19). "Microtiter" 96-well polystyrene culture plates were covered with […] of 50 mM sodium carbonate pH 9.5, containing […] of the monoclonal antibody 9E10, which is directed against a c-myc epitope, and the plates are then preserved at 4° C. for one night. The wells were then washed out five times with TBS (50 mM Tris-HCl, pH 7.5, 150 mM NaCl) containing 0.05% Tween and held for 90 minutes at room temperature in TBSMT (50 mM Tris-HCl, 150 mM NaCl, 5% (w/v) lyophilised non-fat milk). All subsequent incubations were carried out at room temperature on a mixer at a speed of 700 rpm, after each incubation period the wells were washed with TBS containing 0.05% Tween (five times each time). The following incubation periods were performed: (1) 2 hours with […] TBSMT containing […] of CNTFRα-myc; (2) 1 hour with […] of TBSMT containing 200 ng of gp130-flag, 5 nM biotinylated CNTF, and the various competitors and (3) 45 minutes with […] of TBS, 5% (w/v) of bovine serum albumin, 0.05% (v/v) Tween 20 containing 0.8 mg/ml avidin conjugated with alkaline phosphatase.
The alkaline phosphatase activity was determined at 37° C. using 1 mg/ml p-nitrophenyl phosphate in 1 M of diethanolamine-HCl, pH 9.8, and absorbancy at 405 nm was measured after 40–60 minutes using a suitable reader. In some experiments the biotinylated MUT-DH variant molecule (0.5 nM) as used as a ligand.

Assay [2] addresses T2, cellular LIF receptor on HepG2 cells (human, UniProt P42702 45-1097).
T2 sequence (looked up): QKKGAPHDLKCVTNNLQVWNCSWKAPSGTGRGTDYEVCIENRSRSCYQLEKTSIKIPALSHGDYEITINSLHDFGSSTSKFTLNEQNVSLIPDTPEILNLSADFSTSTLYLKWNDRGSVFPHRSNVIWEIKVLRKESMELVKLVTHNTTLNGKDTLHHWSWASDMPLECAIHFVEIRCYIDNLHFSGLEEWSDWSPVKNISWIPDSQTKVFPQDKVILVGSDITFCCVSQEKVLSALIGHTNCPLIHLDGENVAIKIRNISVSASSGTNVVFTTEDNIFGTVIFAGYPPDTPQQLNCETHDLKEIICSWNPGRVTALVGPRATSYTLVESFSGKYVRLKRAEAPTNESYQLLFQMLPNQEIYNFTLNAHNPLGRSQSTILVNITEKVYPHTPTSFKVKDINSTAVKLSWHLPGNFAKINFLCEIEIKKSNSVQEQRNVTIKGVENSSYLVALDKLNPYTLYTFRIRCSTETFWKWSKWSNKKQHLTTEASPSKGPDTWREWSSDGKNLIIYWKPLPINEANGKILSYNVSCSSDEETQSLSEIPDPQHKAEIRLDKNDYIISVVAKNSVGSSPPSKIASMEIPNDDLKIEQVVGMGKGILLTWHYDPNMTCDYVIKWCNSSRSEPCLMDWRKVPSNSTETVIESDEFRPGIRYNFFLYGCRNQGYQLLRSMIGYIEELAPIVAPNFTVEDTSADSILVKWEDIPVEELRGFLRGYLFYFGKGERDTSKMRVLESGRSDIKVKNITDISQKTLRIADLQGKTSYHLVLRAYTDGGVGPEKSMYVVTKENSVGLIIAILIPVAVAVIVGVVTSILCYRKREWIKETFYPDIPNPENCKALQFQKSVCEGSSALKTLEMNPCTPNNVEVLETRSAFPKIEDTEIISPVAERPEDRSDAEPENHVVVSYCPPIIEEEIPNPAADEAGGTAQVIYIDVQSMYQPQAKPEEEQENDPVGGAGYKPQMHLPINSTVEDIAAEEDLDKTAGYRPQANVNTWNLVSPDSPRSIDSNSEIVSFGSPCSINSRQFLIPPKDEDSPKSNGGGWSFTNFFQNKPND
In words: cell-based or functional assay.

For assay [3], the target named is T3, soluble LIFR (LIF receptor) (UniProt P42702 45-833, limits assumed, 35S-labelled in the test of FIG. 1B).
T3 construct: also called LIFR marked with 35S
T3 sequence (looked up): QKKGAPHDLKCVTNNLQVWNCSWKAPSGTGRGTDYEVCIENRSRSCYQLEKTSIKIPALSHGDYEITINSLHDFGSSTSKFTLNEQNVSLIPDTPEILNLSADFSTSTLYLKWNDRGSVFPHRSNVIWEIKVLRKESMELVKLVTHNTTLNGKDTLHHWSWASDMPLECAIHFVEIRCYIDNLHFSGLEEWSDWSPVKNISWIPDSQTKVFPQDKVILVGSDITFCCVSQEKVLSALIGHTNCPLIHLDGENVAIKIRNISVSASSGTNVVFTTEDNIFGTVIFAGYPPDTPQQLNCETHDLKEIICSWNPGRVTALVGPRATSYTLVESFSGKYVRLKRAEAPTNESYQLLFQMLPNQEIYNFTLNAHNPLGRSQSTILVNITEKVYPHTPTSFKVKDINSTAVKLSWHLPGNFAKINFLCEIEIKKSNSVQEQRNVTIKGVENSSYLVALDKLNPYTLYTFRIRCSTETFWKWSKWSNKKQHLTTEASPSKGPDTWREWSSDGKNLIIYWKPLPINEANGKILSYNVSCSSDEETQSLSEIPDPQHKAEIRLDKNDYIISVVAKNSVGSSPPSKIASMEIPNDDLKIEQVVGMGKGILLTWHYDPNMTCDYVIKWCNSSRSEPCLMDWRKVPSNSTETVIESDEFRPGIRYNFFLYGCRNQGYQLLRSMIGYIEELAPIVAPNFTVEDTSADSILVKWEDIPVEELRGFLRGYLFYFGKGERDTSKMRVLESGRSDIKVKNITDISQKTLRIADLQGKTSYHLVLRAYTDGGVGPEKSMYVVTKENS
Put plainly: immunoprecipitation of 35S-LIFR with immobilised soluble CNTFRα and variant, SDS-PAGE (FIG. 1B). On the procedure:
It is known from the literature that the molecules gp130 and LIFR are able to bind independently to the CNTF/CNTFRα complex (11). To assess the functional importance of D1 motif residues the ability of CNTF variants to assemble receptor complexes with the different subunits was assayed. Bonding of the cytokine/CNTFRα complex to gp130 or LIFR marked with ^35S was determined using immunoprecipitation tests as described in the literature (11). The soluble CNTFRα receptor was immobilised on A-Sepharose protein using the monoclonal antibody 9E10 anti-myc and incubated with soluble gp130 or LIFR marked with sulphur ^35S, in the absence or in the presence of different amounts of CNTF variants (1 or 0.1 mg). After washing, the bound material was eluted and subjected to SDS-PAGE.

The target of assay [4] is T4, membrane-bound CNTFRα receptor on IMR-32 cells (human, UniProt P26992 23-342).
T4 sequence (looked up): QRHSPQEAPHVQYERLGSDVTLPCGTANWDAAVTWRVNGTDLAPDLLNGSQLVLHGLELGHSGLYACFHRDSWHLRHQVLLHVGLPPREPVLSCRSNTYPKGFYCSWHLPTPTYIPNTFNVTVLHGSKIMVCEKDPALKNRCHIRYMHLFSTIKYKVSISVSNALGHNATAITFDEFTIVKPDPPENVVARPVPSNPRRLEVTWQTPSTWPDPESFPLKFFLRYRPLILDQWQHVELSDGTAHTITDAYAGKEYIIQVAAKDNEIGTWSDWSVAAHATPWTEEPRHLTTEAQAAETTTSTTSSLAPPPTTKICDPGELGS
Put plainly: cell-based or functional assay.

B1: Lys155Ala/MUT-DH (ligand, human, UniProt P26441 1-200, looked up)
chain: MAFTEHSPLTPHRRDLCSRSIWLARKIRSDLTALTESYVKHQGLNKNINLDSADGMPVASTDQWSELTEAERLQENLQAYRTFHVLLARLLEDQQVHFTPTEGDFHQAIHTLLLQVAAFAYQIEELMILLEYKIPRNEADGMPINVGDGGLFEKALWGLKVLQELDHWTVRSIHDLRFISSHQTGIPARGSHYIANNKKM
notes: also called FADH-CNTF; FA/DH
Take B1: the “Relative Binding ((IC50 of CNTF)/(IC50 of tested protein))” value (“Relative Binding” below) in assay [1] is 42 ratio. In assay [2], the “haptoglobin secretion by HepG2 cells, without soluble CNTFRα (FIG. 2A)” value is ~20 % with respect to the maximum value. Moreover, the binding result in assay [3] was “no binding (tested: 1 or 0.1 mg)”.

B2: Phe152Ala/Lys155Ala/MUT-DH (ligand, human, UniProt P26441 1-200, looked up)
chain: MAFTEHSPLTPHRRDLCSRSIWLARKIRSDLTALTESYVKHQGLNKNINLDSADGMPVASTDQWSELTEAERLQENLQAYRTFHVLLARLLEDQQVHFTPTEGDFHQAIHTLLLQVAAFAYQIEELMILLEYKIPRNEADGMPINVGDGGLAEKALWGLKVLQELDHWTVRSIHDLRFISSHQTGIPARGSHYIANNKKM
notes: also called AADH-CNTF; AA/DH
B2: the “Relative Binding” value in assay [1] was 51 ratio. Also, the “inhibition of Chat activity induced by a subsaturating dose of CNTF in IMR-32 cells (FIG. 4B)” value in assay [4] was 70 fold excess over CNTF for 50% inhibition. Besides, in assay [3], the binding result was “no binding (tested: 1 or 0.1 mg)”.

B3: human ciliary neurotrophic factor (hCNTF) (ligand, UniProt P26441 1-200, looked up)
chain: MAFTEHSPLTPHRRDLCSRSIWLARKIRSDLTALTESYVKHQGLNKNINLDSADGMPVASTDQWSELTEAERLQENLQAYRTFHVLLARLLEDQQVHFTPTEGDFHQAIHTLLLQVAAFAYQIEELMILLEYKIPRNEADGMPINVGDGGLFEKKLWGLKVLQELSQWTVRSIHDLRFISSHQTGIPARGSHYIANNKKM
notes: also called wild-type CNTF; wt
B3: in assay [1], the “Relative Binding” value turned out to be 1 ratio.

B4: Phe152Ala/MUT-DH (ligand, human, UniProt P26441 1-200, looked up)
chain: MAFTEHSPLTPHRRDLCSRSIWLARKIRSDLTALTESYVKHQGLNKNINLDSADGMPVASTDQWSELTEAERLQENLQAYRTFHVLLARLLEDQQVHFTPTEGDFHQAIHTLLLQVAAFAYQIEELMILLEYKIPRNEADGMPINVGDGGLAEKKLWGLKVLQELDHWTVRSIHDLRFISSHQTGIPARGSHYIANNKKM
notes: also called AKDH-CNTF; AK/DH
Take B4: the “Relative Binding” value in assay [1] was determined as 32 ratio. Further, the “haptoglobin secretion by HepG2 cells, without soluble CNTFRα (FIG. 2A)” value in assay [2] is ~20 % with respect to the maximum value. Also, the binding result in assay [3] was “no binding (tested: 1 or 0.1 mg)”.

B5: Phe152Ala/Lys155Ala/hCNTF (ligand, human, UniProt P26441 1-200, looked up)
chain: MAFTEHSPLTPHRRDLCSRSIWLARKIRSDLTALTESYVKHQGLNKNINLDSADGMPVASTDQWSELTEAERLQENLQAYRTFHVLLARLLEDQQVHFTPTEGDFHQAIHTLLLQVAAFAYQIEELMILLEYKIPRNEADGMPINVGDGGLAEKALWGLKVLQELSQWTVRSIHDLRFISSHQTGIPARGSHYIANNKKM
notes: also called Phe152Ala/Lys155Ala/CNTF; AA-CNTF
For the molecule B5, the “Relative Binding” value in assay [1] worked out at 0.9 ratio.

B6: Lys155Ala/CNTF (ligand, human, UniProt P26441 1-200, looked up)
chain: MAFTEHSPLTPHRRDLCSRSIWLARKIRSDLTALTESYVKHQGLNKNINLDSADGMPVASTDQWSELTEAERLQENLQAYRTFHVLLARLLEDQQVHFTPTEGDFHQAIHTLLLQVAAFAYQIEELMILLEYKIPRNEADGMPINVGDGGLFEKALWGLKVLQELSQWTVRSIHDLRFISSHQTGIPARGSHYIANNKKM
notes: also called FA-CNTF
Regarding B6, in assay [1], the “Relative Binding” value is 1 ratio. Besides, the “haptoglobin secretion by HepG2 cells, without soluble CNTFRα (FIG. 2A)” value in assay [2] is ~20 % with respect to the maximum value.

B7: MUT-DH (Ser166Asp/Gln167His/CNTF) (ligand, human, UniProt P26441 1-200, looked up)
chain: MAFTEHSPLTPHRRDLCSRSIWLARKIRSDLTALTESYVKHQGLNKNINLDSADGMPVASTDQWSELTEAERLQENLQAYRTFHVLLARLLEDQQVHFTPTEGDFHQAIHTLLLQVAAFAYQIEELMILLEYKIPRNEADGMPINVGDGGLFEKKLWGLKVLQELDHWTVRSIHDLRFISSHQTGIPARGSHYIANNKKM
notes: also called DH-CNTF; S166D/Q167H/CNTF
Consider B7, for which the “Relative Binding” value in assay [1] was found to be 41 ratio.
